What was measured:
CtNDT [1] = biological target: T1, CtNDT (Chroococcidiopsis thermalis, UniProt K9TVX3, A9S); test: HPLC initial rates, Michaelis-Menten; format: biochemical; conditions: adenine as nucleobase acceptor
T1 construct: gene Chro_1188; homotetramer; residues 111 and 118 of the neighbouring subunit complete the site; expression host and tags only in supplement

CtNDT [2] = biological target: T2, CtNDT (Chroococcidiopsis thermalis, UniProt K9TVX3, V85S); test: HPLC initial rates, Michaelis-Menten; format: biochemical; conditions: adenine as nucleobase acceptor
T2 construct: gene Chro_1188; homotetramer; residues 111 and 118 of the neighbouring subunit complete the site; expression host and tags only in supplement

CtNDT [3] = biological target: T3, CtNDT (Chroococcidiopsis thermalis, UniProt K9TVX3); test: steady-state kinetics (details in supplement); format: biochemical; conditions: nucleobase acceptor; kcat/KM only said to be similar
T3 construct: gene Chro_1188; homotetramer; residues 111 and 118 of the neighbouring subunit complete the site; expression host and tags only in supplement

CtNDT [4] = biological target: T4, CtNDT (Chroococcidiopsis thermalis, UniProt K9TVX3, Y7F/A9S); test: X-ray crystal structure; conditions: active site, ribosyl-binding pocket
T4 construct: gene Chro_1188; homotetramer; residues 111 and 118 of the neighbouring subunit complete the site; expression host and tags only in supplement

CtNDT [5] = biological target: T5, CtNDT (Chroococcidiopsis thermalis, UniProt K9TVX3, Y7F); test: X-ray crystal structure; format: binding; conditions: active site; ligand placed in 2 of 4 protomers, less defined density
T5 construct: gene Chro_1188; homotetramer; residues 111 and 118 of the neighbouring subunit complete the site; expression host and tags only in supplement

CtNDT [6] = biological target: T6, CtNDT (Chroococcidiopsis thermalis, UniProt K9TVX3, A9S/Y7F); test: binding assay (details in supplement)
T6 construct: gene Chro_1188; homotetramer; residues 111 and 118 of the neighbouring subunit complete the site; expression host and tags only in supplement

[7] = substrate: OC[C@H]1O[C@@H](n2cnc3c(O)ncnc32)[C@H](O)[C@@H]1O; test: HPLC initial rates, Michaelis-Menten; format: biochemical, Chroococcidiopsis thermalis; conditions: adenine as nucleobase acceptor
[8] = substrate: OC[C@H]1O[C@@H](n2cnc3c(O)ncnc32)[C@H](O)[C@@H]1O; test: HPLC initial rates, Michaelis-Menten; format: biochemical, Chroococcidiopsis thermalis; conditions: adenine as nucleobase acceptor; remark: listed apart in the source
Excerpt: HPLC initial rates, Michaelis-Menten on CtNDT | evaluated with inosine as the sugar donor and adenine as the […]

T2 sequence (K9TVX3 entry or part of it V85S): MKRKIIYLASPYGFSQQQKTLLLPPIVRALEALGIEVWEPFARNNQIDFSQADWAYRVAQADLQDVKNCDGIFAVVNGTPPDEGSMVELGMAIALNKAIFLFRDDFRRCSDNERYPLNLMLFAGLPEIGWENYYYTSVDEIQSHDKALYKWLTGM
T1 sequence (K9TVX3 entry or part of it A9S): as the sequence (K9TVX3 entry or part of it V85S) above, with A9S, S85V counted along it

With `O=c1[nH]cnc2c1ncn2[C@@H]1O[C@H](CO)[C@@H](O)[C@H]1O` [inosine] the “K M-inosine” value (CtNDT [1]) was “These mutants had modest changes in K M‑inosine” and the “K M-inosine” value (CtNDT [2]) was “These mutants had modest changes in K M‑inosine”.

With `O=c1[nH]c(=O)c2[nH]cnc2[nH]1` [xanthine] the “k cat/K M” value (CtNDT [3]) was “uric acid, xanthine, and hypoxanthine, which have similar k cat/K M values”.

`Nc1ncnc2c1ncn2[C@@H]1O[C@H](CO)C[C@H]1O` [cordycepin] was tested, and the X-ray crystal structure (CtNDT [4]) was 9EMXCtNDTY7F‑A9S bound to Cordycepin.

`O=c1[nH]cnc2nc[nH]c12` [hypoxanthine] was tested, and the “k cat/K M” value (CtNDT [3]) was “uric acid, xanthine, and hypoxanthine, which have similar k cat/K M values”.

In the case of `O=c1[nH]cnc2c([C@@H]3N[C@H](CO)[C@@H](O)[C@H]3O)c[nH]c12` [Immucillin-H], the X-ray crystal structure (CtNDT [5]) is reported as 9EMWCtNDTY7F bound to ImmH and the Kd (CtNDT [6]) is reported as 590 µM.

B1: CtNDT (Chroococcidiopsis thermalis PCC 7203; Y7A) (protein)
chain: MKRKIIALASPYGFSQQQKTLLLPPIVRALEALGIEVWEPFARNNQIDFSQADWAYRVAQADLQDVKNCDGIFAVVNGTPPDEGVMVELGMAIALNKAIFLFRDDFRRCSDNERYPLNLMLFAGLPEIGWENYYYTSVDEIQSHDKALYKWLTGM
notes: homotetramer; residues 111 and 118 of the neighbouring subunit complete the site; expression host and tags only in supplement
B1 was tested, and the Km [7] was 530 ± 10 µM and the kcat [7] was 0.02 ± 0.01 s⁻¹.

B2: CtNDT (Chroococcidiopsis thermalis PCC 7203) (protein)
chain: MKRKIIYLASPYGFSQQQKTLLLPPIVRALEALGIEVWEPFARNNQIDFSQADWAYRVAQADLQDVKNCDGIFAVVNGTPPDEGVMVELGMAIALNKAIFLFRDDFRRCSDNERYPLNLMLFAGLPEIGWENYYYTSVDEIQSHDKALYKWLTGM
notes: as for B1
B2 was tested, and the Km [8] was 920 ± 240 µM and the kcat [8] was 0.01 ± 0.01 s⁻¹.

B3: CtNDT (Chroococcidiopsis thermalis PCC 7203; Y7F) (protein)
chain: MKRKIIFLASPYGFSQQQKTLLLPPIVRALEALGIEVWEPFARNNQIDFSQADWAYRVAQADLQDVKNCDGIFAVVNGTPPDEGVMVELGMAIALNKAIFLFRDDFRRCSDNERYPLNLMLFAGLPEIGWENYYYTSVDEIQSHDKALYKWLTGM
notes: as for B1
In the case of B3, the Km [7] is reported as 710 ± 170 µM and the kcat [7] is reported as 0.03 ± 0.01 s⁻¹.

B4: CtNDT (Chroococcidiopsis thermalis PCC 7203; D62N) (protein)
chain: MKRKIIYLASPYGFSQQQKTLLLPPIVRALEALGIEVWEPFARNNQIDFSQADWAYRVAQANLQDVKNCDGIFAVVNGTPPDEGVMVELGMAIALNKAIFLFRDDFRRCSDNERYPLNLMLFAGLPEIGWENYYYTSVDEIQSHDKALYKWLTGM
notes: as for B1
With B4 the Km [7] was 800 ± 90 µM and the kcat [7] was 0.002 ± 0.001 s⁻¹.

B5: CtNDT (Chroococcidiopsis thermalis PCC 7203; A9S/Y7F) (protein)
chain: MKRKIIFLSSPYGFSQQQKTLLLPPIVRALEALGIEVWEPFARNNQIDFSQADWAYRVAQADLQDVKNCDGIFAVVNGTPPDEGVMVELGMAIALNKAIFLFRDDFRRCSDNERYPLNLMLFAGLPEIGWENYYYTSVDEIQSHDKALYKWLTGM
notes: as for B1
Molecule B5 has a Km [7] of 620 µM.

— article PMC12645435, “Improved Nucleoside (2′-Deoxy)Ribosyltransferases Maximize Enzyme Promiscuity while Maintaining Catalytic Efficiency” (ACS Chemical Biology, 2025)
